# According to paper PMC2756588:
# T1: Abp1, P15891
# T1 sequence (P15891 535-592, looked up): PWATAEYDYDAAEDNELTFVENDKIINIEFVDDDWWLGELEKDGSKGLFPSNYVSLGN
# T2: Bbc1, P47068
# T2 sequence (P47068 1-78, looked up): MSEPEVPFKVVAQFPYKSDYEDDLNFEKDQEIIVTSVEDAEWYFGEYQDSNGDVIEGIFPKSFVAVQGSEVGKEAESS
# T3: Boi1, P38041
# T3 sequence (P38041 1-86, looked up): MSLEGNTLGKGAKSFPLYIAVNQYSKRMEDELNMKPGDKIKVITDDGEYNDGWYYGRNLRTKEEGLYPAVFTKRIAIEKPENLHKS
# T4: Boi2, P39969
# T4 sequence (P39969 32-116, looked up): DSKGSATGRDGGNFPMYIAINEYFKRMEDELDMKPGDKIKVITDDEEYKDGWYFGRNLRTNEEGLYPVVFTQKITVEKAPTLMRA
# T5: Bud14, P27637
# T5 sequence (P27637 247-328, looked up): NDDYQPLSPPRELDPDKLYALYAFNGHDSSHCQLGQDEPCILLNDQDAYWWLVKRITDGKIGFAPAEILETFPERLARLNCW
# T6: Bzz1-1, P38822
# T6 sequence (P38822 478-572, looked up): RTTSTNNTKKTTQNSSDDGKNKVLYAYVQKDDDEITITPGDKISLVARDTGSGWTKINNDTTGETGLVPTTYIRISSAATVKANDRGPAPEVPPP
# T7: Bzz1-2, P38822
# T7 sequence (P38822 568-633, looked up): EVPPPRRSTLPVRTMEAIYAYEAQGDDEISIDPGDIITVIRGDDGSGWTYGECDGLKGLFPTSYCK
# T8: Cdc25, P04821
# T8 sequence (P04821 50-136, looked up): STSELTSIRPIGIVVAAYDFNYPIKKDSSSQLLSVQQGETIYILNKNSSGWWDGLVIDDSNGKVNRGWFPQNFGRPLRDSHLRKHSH
# T9: Cyk3, Q07533
# T9 sequence (Q07533 1-83, looked up): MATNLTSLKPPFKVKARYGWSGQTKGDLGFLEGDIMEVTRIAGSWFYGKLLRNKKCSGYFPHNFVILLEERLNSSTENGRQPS
# T10: Fus1, P11710
# T10 sequence (P11710 432-512, looked up): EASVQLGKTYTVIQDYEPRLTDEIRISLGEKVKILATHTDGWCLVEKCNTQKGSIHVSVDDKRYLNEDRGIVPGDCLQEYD
# T11: Hof1, Q05080
# T11 sequence (Q05080 590-669, looked up): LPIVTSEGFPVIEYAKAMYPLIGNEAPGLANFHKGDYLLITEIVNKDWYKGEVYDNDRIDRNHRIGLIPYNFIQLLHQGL
# T12: Hse1, P38753
# T12 sequence (P38753 208-285, looked up): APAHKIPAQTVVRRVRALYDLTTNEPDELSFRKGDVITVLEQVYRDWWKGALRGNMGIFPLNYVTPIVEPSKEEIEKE
# T13: Lsb1, P53281
# T13 sequence (P53281 45-122, looked up): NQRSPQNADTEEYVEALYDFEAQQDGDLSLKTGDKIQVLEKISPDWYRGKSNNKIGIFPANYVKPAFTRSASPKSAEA
# T14: Lsb3, P43603
# T14 sequence (P43603 385-451, looked up): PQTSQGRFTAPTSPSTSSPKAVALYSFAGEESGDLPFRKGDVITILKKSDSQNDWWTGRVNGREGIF
# T15: Lsb4, P32793
# T15 sequence (P32793 402-468, looked up): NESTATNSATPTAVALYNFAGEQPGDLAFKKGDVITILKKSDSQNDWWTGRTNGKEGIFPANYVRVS
# T16: Myo5, Q04439
# T16 sequence (Q04439 1072-1160, looked up): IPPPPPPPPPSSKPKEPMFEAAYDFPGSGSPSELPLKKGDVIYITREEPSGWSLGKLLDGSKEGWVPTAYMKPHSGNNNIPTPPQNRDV
# T17: Nbp2, Q12163
# T17 sequence (Q12163 103-180, looked up): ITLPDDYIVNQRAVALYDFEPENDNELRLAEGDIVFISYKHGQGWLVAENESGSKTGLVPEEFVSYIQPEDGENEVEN
# T18: Pex13, P80667
# T18 sequence (P80667 295-386, looked up): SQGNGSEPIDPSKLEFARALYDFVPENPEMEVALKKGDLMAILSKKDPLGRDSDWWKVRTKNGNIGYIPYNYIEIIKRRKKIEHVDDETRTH
# T19: Pin3, Q06449
# T19 sequence (Q06449 53-122, looked up): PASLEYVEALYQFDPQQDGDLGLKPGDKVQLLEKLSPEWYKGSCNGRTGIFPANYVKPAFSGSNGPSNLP
# T20: Sla1-2, P32790
# T20 sequence (P32790 60-140, looked up): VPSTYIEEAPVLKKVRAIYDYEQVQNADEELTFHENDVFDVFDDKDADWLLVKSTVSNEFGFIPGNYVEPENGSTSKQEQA
# T21: Sla1-3, P32790
# T21 sequence (P32790 344-424, looked up): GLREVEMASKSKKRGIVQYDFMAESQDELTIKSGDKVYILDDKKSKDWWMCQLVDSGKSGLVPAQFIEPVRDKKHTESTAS
# Experiments:
# Assay in all cases: SPOT array
# Abp1, P15891 = target: T1, Abp1, P15891; details: median of control spots 935
# Bbc1, P47068 = target: T2, Bbc1, P47068; details: median of control spots 796
# Bem1-1, P29366 = details: median of control spots 4282
# Sequence of Bem1-1, P29366 (P29366 55-141): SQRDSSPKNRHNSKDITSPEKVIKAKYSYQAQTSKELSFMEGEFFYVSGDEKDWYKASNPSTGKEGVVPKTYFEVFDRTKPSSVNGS
# Bem1-2, P29366 = details: median of control spots 4347
# Sequence of Bem1-2, P29366 (P29366 139-227): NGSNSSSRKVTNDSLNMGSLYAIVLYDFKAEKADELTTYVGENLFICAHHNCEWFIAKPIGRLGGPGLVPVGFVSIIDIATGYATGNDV
# Boi1, P38041 = target: T3, Boi1, P38041; details: median of control spots 1162
# Boi2, P39969 = target: T4, Boi2, P39969; details: median of control spots 1161
# Bud14, P27637 = target: T5, Bud14, P27637; details: median of control spots 956
# Bzz1-1, P38822 = target: T6, Bzz1-1, P38822; details: median of control spots 4446
# Bzz1-2, P38822 = target: T7, Bzz1-2, P38822; details: median of control spots 4538
# Cdc25, P04821 = target: T8, Cdc25, P04821; details: median of control spots 969
# Cyk3, Q07533 = target: T9, Cyk3, Q07533; details: median of control spots 1451
# Fus1, P11710 = target: T10, Fus1, P11710; details: median of control spots 1200
# GST = details: median of control spots 978
# Hof1, Q05080 = target: T11, Hof1, Q05080; details: median of control spots 4086
# Hse1, P38753 = target: T12, Hse1, P38753; details: median of control spots 1727
# Lsb1, P53281 = target: T13, Lsb1, P53281; details: median of control spots 388
# Lsb3, P43603 = target: T14, Lsb3, P43603; details: median of control spots 406
# Lsb4, P32793 = target: T15, Lsb4, P32793; details: median of control spots 397
# Myo3, P36006 = details: median of control spots 468
# Myo5, Q04439 = target: T16, Myo5, Q04439; details: median of control spots 471
# Nbp2, Q12163 = target: T17, Nbp2, Q12163; details: median of control spots 357
# Pex13, P80667 = target: T18, Pex13, P80667; details: median of control spots 1341
# Pin3, Q06449 = target: T19, Pin3, Q06449; details: median of control spots 2171
# Rvs167, P39743 = details: median of control spots 2707
# Sequence of Rvs167, P39743 (P39743 419-482): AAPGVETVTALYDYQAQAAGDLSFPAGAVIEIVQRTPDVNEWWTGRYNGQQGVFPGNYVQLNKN
# Sho1, P40073 = details: median of control spots 1148
# Sequence of Sho1, P40073 (P40073 287-367): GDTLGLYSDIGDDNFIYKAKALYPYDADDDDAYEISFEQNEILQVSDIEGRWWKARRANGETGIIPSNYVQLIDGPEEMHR
# Sla1-2, P32790 = target: T20, Sla1-2, P32790; details: median of control spots 712
# Sla1-3, P32790 = target: T21, Sla1-3, P32790; details: median of control spots 5475
binder,measurement,setting,value
PALPSLPPPPLLNVD,SPOT intensity,"Abp1, P15891",0
same,SPOT intensity,"Bbc1, P47068",0
same,SPOT intensity,"Bem1-1, P29366",0
same,SPOT intensity,"Bem1-2, P29366",0
same,SPOT intensity,"Boi1, P38041",0
same,SPOT intensity,"Boi2, P39969",0
same,SPOT intensity,"Bud14, P27637",1
same,SPOT intensity,"Bzz1-1, P38822",2
same,SPOT intensity,"Bzz1-2, P38822",0
same,SPOT intensity,"Cdc25, P04821",0
same,SPOT intensity,"Cyk3, Q07533",0
same,SPOT intensity,"Fus1, P11710",0
same,SPOT intensity,GST,0
same,SPOT intensity,"Hof1, Q05080",6720
same,SPOT intensity,"Hse1, P38753",0
same,SPOT intensity,"Lsb1, P53281",0
same,SPOT intensity,"Lsb3, P43603",0
same,SPOT intensity,"Lsb4, P32793",0
same,SPOT intensity,"Myo3, P36006",598
same,SPOT intensity,"Myo5, Q04439",688
same,SPOT intensity,"Nbp2, Q12163",0
same,SPOT intensity,"Pex13, P80667",2
same,SPOT intensity,"Pin3, Q06449",0
same,SPOT intensity,"Rvs167, P39743",0
same,SPOT intensity,"Sho1, P40073",83
same,SPOT intensity,"Sla1-2, P32790",0
same,SPOT intensity,"Sla1-3, P32790",0
KKAPPPVVKPKPRNF,SPOT intensity,"Abp1, P15891",899
same,SPOT intensity,"Bbc1, P47068",2
same,SPOT intensity,"Bem1-1, P29366",0
same,SPOT intensity,"Bem1-2, P29366",0
same,SPOT intensity,"Boi1, P38041",0
same,SPOT intensity,"Boi2, P39969",3
same,SPOT intensity,"Bud14, P27637",3
same,SPOT intensity,"Bzz1-1, P38822",10
same,SPOT intensity,"Bzz1-2, P38822",360
same,SPOT intensity,"Cdc25, P04821",15
same,SPOT intensity,"Cyk3, Q07533",5
same,SPOT intensity,"Fus1, P11710",1
same,SPOT intensity,GST,3
same,SPOT intensity,"Hof1, Q05080",10
same,SPOT intensity,"Hse1, P38753",0
same,SPOT intensity,"Lsb1, P53281",4
same,SPOT intensity,"Lsb3, P43603",0
same,SPOT intensity,"Lsb4, P32793",0
same,SPOT intensity,"Myo3, P36006",0
same,SPOT intensity,"Myo5, Q04439",0
same,SPOT intensity,"Nbp2, Q12163",0
same,SPOT intensity,"Pex13, P80667",4
same,SPOT intensity,"Pin3, Q06449",1
same,SPOT intensity,"Rvs167, P39743",1
same,SPOT intensity,"Sho1, P40073",21
same,SPOT intensity,"Sla1-2, P32790",2
same,SPOT intensity,"Sla1-3, P32790",0
GATNNAPTLPKRKNP,SPOT intensity,"Abp1, P15891",36
same,SPOT intensity,"Bbc1, P47068",6
same,SPOT intensity,"Bem1-1, P29366",0
same,SPOT intensity,"Bem1-2, P29366",9
same,SPOT intensity,"Boi1, P38041",12
same,SPOT intensity,"Boi2, P39969",58
same,SPOT intensity,"Bud14, P27637",0
same,SPOT intensity,"Bzz1-1, P38822",0
same,SPOT intensity,"Bzz1-2, P38822",0
same,SPOT intensity,"Cdc25, P04821",1
same,SPOT intensity,"Cyk3, Q07533",0
same,SPOT intensity,"Fus1, P11710",2
same,SPOT intensity,GST,0
same,SPOT intensity,"Hof1, Q05080",0
same,SPOT intensity,"Hse1, P38753",1
same,SPOT intensity,"Lsb1, P53281",64
same,SPOT intensity,"Lsb3, P43603",425
same,SPOT intensity,"Lsb4, P32793",570
same,SPOT intensity,"Myo3, P36006",0
same,SPOT intensity,"Myo5, Q04439",0
same,SPOT intensity,"Nbp2, Q12163",0
same,SPOT intensity,"Pex13, P80667",27
same,SPOT intensity,"Pin3, Q06449",0
same,SPOT intensity,"Rvs167, P39743",2550
same,SPOT intensity,"Sho1, P40073",2
same,SPOT intensity,"Sla1-2, P32790",92
same,SPOT intensity,"Sla1-3, P32790",1
SSSSSPPPLPTRRDH,SPOT intensity,"Abp1, P15891",0
same,SPOT intensity,"Bbc1, P47068",3
same,SPOT intensity,"Bem1-1, P29366",8
same,SPOT intensity,"Bem1-2, P29366",13
same,SPOT intensity,"Boi1, P38041",4
same,SPOT intensity,"Boi2, P39969",4
same,SPOT intensity,"Bud14, P27637",0
same,SPOT intensity,"Bzz1-1, P38822",6
same,SPOT intensity,"Bzz1-2, P38822",3
same,SPOT intensity,"Cdc25, P04821",15
same,SPOT intensity,"Cyk3, Q07533",1
same,SPOT intensity,"Fus1, P11710",1
same,SPOT intensity,GST,1
same,SPOT intensity,"Hof1, Q05080",16
same,SPOT intensity,"Hse1, P38753",4
same,SPOT intensity,"Lsb1, P53281",463
same,SPOT intensity,"Lsb3, P43603",485
same,SPOT intensity,"Lsb4, P32793",748
same,SPOT intensity,"Myo3, P36006",69
same,SPOT intensity,"Myo5, Q04439",19
same,SPOT intensity,"Nbp2, Q12163",0
same,SPOT intensity,"Pex13, P80667",467
same,SPOT intensity,"Pin3, Q06449",0
same,SPOT intensity,"Rvs167, P39743",3540
same,SPOT intensity,"Sho1, P40073",0
same,SPOT intensity,"Sla1-2, P32790",0
same,SPOT intensity,"Sla1-3, P32790",7
